Residue numbers refer to the chain shown, from its start. Where “and” joins values, the source holds several entries; their conditions need not be identical. Equal values may be shown once.
B1: antibody 382 (antibody, V domains shown)
VH: QVQLVESGGGVVQPGRSLRLSCAASGFTFSNYGMHWVRQAPGKGLEWMTVISFDGRNKYYADSVKGRFTISRDNSKNTLFLQMNSLTTEDTALYFCASGRRPRYSSGWSFDYWGQGTLVTVSS
VL: DIQMTQSPSSLSASVGDRVTITCQASQDIGNYLNWYQQKLGKAPNLLIYDASNLETGVPSRFSGSGSGTDFTFTINSLQPEDTATYYCQQYDDPSITFGQGTRLEIK
B2: antibody 383 (antibody, V domains shown)
VH: EVQLVESGGGLVQPGGSLRLSCAASGFTFSSYDMHWVRQATGKGLEWVSTIGTAGDTYYPGSVKGRFTISRENAKNSLYLQMNSLRAGDTAVYYCARVAYSSSFVYWYFDLWGRGTLVTVSS
VL: DIQMTQSPSSLSASIGDRVTITCRASQSISSYLNWYQQKPGKAPNLLIYAASSLQSGVPSRFSGSGSGTDFTLTISSLQPEDFATYYCQQSYTTPLYTFGQGTKLEIK
B3: antibody 472 (antibody, V domains shown)
VH: EVQLVESGGGLIQPGGSLRLSCAASGFTVSSNYMSWVRQAPGKGLEWVSVIYSGGTTHYADSVKGRFTISRDNSKNTLYLQMNSLRAEDTAVYYCANYGMDVWGQGTTVTVSS
VL: SYELTQPSSVSVSPGQTARITCSGDVLAKKYARWFQQKPGQAPVLVIYKDSERPSGIPERFSGSSSGTTVTLTISGAQVEDEADYYCYSAADKVFGGGTKLTVL
B4: antibody 464 (antibody, V domains shown)
VH: QVQLVQSGAEVKKPGASVKVSCKVSGYTLTELSMHWVRQAPGKGLEWMGGFDPEDGETIYAQKFQGRVTMTEDTSTDTAYMELSSLRSEDTAVYYCATARAFGVANWFDPWGQGTLVTVSS
VL: QSVLTQPPSASGTPGQRVTISCSGSSSNIGSNYVYWYQQLPGTAPKLLIYRNNQRPSGVPDRFSGSKSGTSASLAISGLRSEDEADYYCAAWDDSLSGLYVFGTGTKVTVL
B5: antibody 490 (antibody, V domains shown)
VH: QVQLQESGPGLVKPSGTLSLTCAVSGGSISSSNWWSWVRQPPGKGLEWIGELYHSGSTNYNPSLKSRVTISVDKSKNQFSLKLSSVTAADTAVYYCARVGPYYYDSSGYYNYFDYWGPGTLVTVSS
VL: EIVLTQSPATLSLSPGERATLSCRASQSVSSYLAWYQQKPGQAPRLLIYDASNRATGIPARFSGSGSGTDFTLTISSLEPEDFAVYYCQQRSNWPPGITFGQGTRLEIK
B6: antibody 389 (antibody, V domains shown)
VH: QVQLVESGGGVVQPGRSLRLSCAASGFTFSSYAMHWVRQAPGKGLEWVAVISYDGSNKYYADSVKGRFTISRDNSKNTLYLQMNSLRAEDTAVYYCASQGRMYVRGVDYGVYWGQGTLVTVSS
VL: NFMLTQPHSVSESPGKTVTISCTGSSGSIASNYVQWYQQRPGSAPTTVIYEDNQRPSGVPDRFSGSIDSSSNSASLTISGLKTEDEADYYCQSYDSSKISHAVFGGGTQLTVL
B7: antibody 390 (antibody, V domains shown)
VH: EVQLVESGGGLIQPGGSLRLSCAASGFTVSSNYMSWVRQAPGKGLEWVSIIYSGGSTYYADSVKGRFTISRDNSKNTLYLQMNSLRAEDSAVYSCATTMVRGLIISYYYGMDVWGQGTTVTVSS
VL: QSALTQPASVSGSPGQSITISCTGTSSDVGGYNYVSWYQQHPGKAPKLMIYEVSNRPSGVSNRFSGSKSGNTASLTISGLQAEDEADYYCSSYTSSSTLVFGGGTKLTVL
B8: antibody 493 (antibody, V domains shown)
VH: B7 VH with G16R, S31I, N32T, I50L, T57S, S90T, S94Y, L103V
VL: B7 VL
B9: antibody 413 (antibody, V domains shown)
VH: EVQLVESGGGLIQPGGSLRLSCAASGFTVSGNYMNWVRQAPGKGLEWVSVIYSGGSTYYADSVKGRFTISRANSKNTLYLQMNSLRAEDTAVYYCASTSLVRGLIILYYYGMDVWGQGTTVTVSS
VL: B7 VL
B10: antibody 507 (antibody, V domains shown)
VH: QVQLQESGPGLVKPSGTLSLTCAVSGGSISSSNWWSWVRQPPGKGLEWIGEIYHSGNTNYNPSLKSRVTISVDKSKNQFSLKLSSVTAADTAVYYCARREWLRLFDYWGQGTLVTVSS
VL: B7 VL with G31S, Y34L, N55K, S91C, T94A, S95G, L99Y, G103T, L107V
B11: antibody 374 (antibody, V domains shown)
VH: QVQLQESGPGLVKPSGTLSLTCAVSGGSISSSKWWSWVRQPPGKGLEWIGEIYHSGSTNYNPSLKSRVTISVDKSKNQFSLKLSSVTAADTAVYYCARRELGEGTFTYWGQGTLVTVSS
VL: not shown
B12: antibody 485 (antibody, V domains shown)
VH: QVQLQESGPGLVKPSGTLSLTCAVSGASISSSNWWSWVRQPPGKGLEWIGEIYHSGSTNYNPSLKSRVTISVDKSKNQFSLKLSSVTAADTAVYYCARRSYYGSGSYYPFDYWGQGTLVTVSS
VL: QSALTQPASVSGSPGQSITISCTGTSSDVGSYNLVSWYQQHPGKAPKLMIYEGRKRPSGVSNRFSGSKSGNTASLTISGLQAEDEADYYCCSYAGSSTYVFGTGTKVTVL
B13: antibody 505 (antibody, V domains shown)
VH: EVQLVESGGGLVKPGGSLRLSCAASGFTFSSYSMNWVRQAPGKGLEWVSSISSSSSYIYYADSVKGRITISRDNAKNSLYLQMNSLRAEDTAVYYCAREYPNFRAEWLLSPYGMDVWGQGTTVTVSS
VL: QSALTQPASVSGSPGQSITISCTGTSSDVGSYNLVSWYQQHPGKAPKLMIYEVSKRPSGVSNRFSGSKSGNTASLTISGLQAEDEADYYCCSYAGSSTSVKVFGTGTKVTVL
B14: antibody 538 (antibody, V domains shown)
VH: QLQLQESGPGLVKPSETLSLTCTVSGGSISSSSYYWGWIRQPPGKGLEWIGSINYSGSTYYNPSLKSRVTISVDTSKNQFSLKLSSVTAADTAVYYCARYHDYGDDYWGQGTLVTVSS
VL: QLVLTQSPSASASLGASVKLTCTLSSGHSRYAIAWHQQQPEKGPRYLMKLNSDGSHSKGDGIPDRFSGSSSGAERYLTISSLQSEDEADYYCQTWGTGIQVFGGGTKLTVL
B15: antibody 304 (antibody, V domains shown)
VH: EVQLLESGGGLVQPGGSLRLSCAASGFTFSTYAMSWVRQAPGKGLEWVSAISGSGGSTYYADSVKGRFTISRDNSKNTLYLQMNSLRAEDTAVYYCASGYSPDYWGQGTLVTVSS
VL: AIQMTQSPSSLSASVGDRVTITCRASQGIRNDLGWYQQKPGKAPKLLIYAASSLQSGVPSRFSGSGSGTDFTLTISSLQPEDFATYYCLQDYNYPRTFGQGTKVEIK
B16: antibody 524 (antibody, V domains shown)
VH: QVQLVESGGGVVQPGRSLRLSCAASGFTFSSYAMHWVRQAPGKGLEWVAVISYDGSNKYYADSVKGRFTISRDNSKNTLYLQMNSLRAEDTAVYYCAKAGGGSYYRGFDYWGQGTLVTVSS
VL: QSVLTQPPSVSAAPGQKVTISCSGSNSNIGNNYVSWYQQLPGSAPKLLIYDNDKRPSGIPDRFSGSKSGTSATLGITGLQTGDEADYYCGAWDSSLTALVFGGGTKLTVL
B17: antibody 436 (antibody, V domains shown)
VH: QVQVVESGGGVVQPGRSLRLSCAASGFTFSSYAMHWVRQAPGKGLEWVAVISYDGNNEYYVDPVKGRFTISRDNSKNTLYLQMNSLRAEDTALYYCATSREAIVVGGILDYWGQGTLVTVSS
VL: DIQMTQSPSSLSASVGDRVTITCQASHDINNFLNWYQQKPGQAPKLLIYDASNLETGVPSRFSGSGSGTDFTFTISSLHPEDVATYYCQQYDGLPRYVTFGQGTKLEIR
B18: antibody 544 (antibody, V domains shown)
VH: QVQLQQWGAGLLKPSETLSLTCAVYGGSFSGYYWSWIRQPPGKGLEWIGEINHSGSTNYNPSLKSRVTISVDTSKNQFSLKLSSVTAADTAVYYCARGFKWFGELLFGAQGTLVTVSS
VL: not shown
B19: antibody 551 (antibody, V domains shown)
VH: EVQLVESGGGLVQPGGSLRLSCAASGFTFSSYWMSWVRQAPGKGLEWVANINQDGSDKYYVDSVKGRFTISRDNAKNSLYLQMNSLRAEDTAVYYCARAPGWAAAPTFDYWGQGTLVTVSS
VL: QSALTQPRSVSGSPGQSVTISCTGTSSDVGGYNYVSWYQQHPGKAPKFMIYDVSKRPSGVPDRFSGSKSGNTASLTISGLQAEDEADYYCCSYAGSYTLVVFGGGTKLTVL

Target: SARS-CoV-2 full length spike protein, V483A mutant, expressed on CHO cells (SARS-CoV-2), P0DTC2
Conditions: remark: other sources report otherwise

Binder | median fluorescence fold over isotype control (fold over isotype) | median fluorescence intensity, fold over isotype control (fold over isotype)
B1 | 0.88 | –
B2 | 1.8 | –
B3 | – | 2.35 and 2.49
B4 | – | 1.04 and 1
B5 | – | 1.15 and 1.13 and 1.52
B6 | 1.24 | –
B7 | 1.36 | –
B8 | – | 4.63 and 2.26
B9 | 1.67 | –
B10 | – | 1.12
B11 | 1.22 | –
B12 | – | 1.11
B13 | – | 1

Target: SARS-CoV-2 full length spike protein, V367F mutant, expressed on CHO cells (SARS-CoV-2), P0DTC2
Conditions: remark: other sources report otherwise

Binder | median fluorescence fold over isotype control (fold over isotype) | median fluorescence intensity, fold over isotype control (fold over isotype)
B2 | 11.4 | –
B3 | – | 3.19
B4 | – | 1.04
B5 | – | 1.14
B8 | – | 4.82

Target: SARS-CoV-2 full length spike protein, V483A mutant (SARS-CoV-2), P0DTC2
Conditions: remark: other sources report otherwise

Binder | median fold over isotype (fold over isotype) | median fluorescence intensity, fold over isotype control (fold over isotype) | median fluorescence fold over isotype control (fold over isotype)
B14 | 1.48 | – | –
B15 | – | 0.66 | –
B16 | 0.99 and 1.25 | – | –
B17 | – | – | 0.85
B18 | 1.58 | – | –
B19 | 1.7 | – | –

Target: SARS-CoV-2 full length spike protein, D614G mutant, expressed on CHO cells (SARS-CoV-2), P0DTC2
Conditions: remark: other sources report otherwise

Binder | median fluorescence fold over isotype control (fold over isotype) | median fluorescence intensity, fold over isotype control (fold over isotype)
B2 | 6.38 | –
B3 | – | 1.22
B4 | – | 0.86
B5 | – | 1.03
B8 | – | 1.72

Reference: patent US20210292393A1
